Data from publication PMC4835703.

Key:
[1] = target: MD2-GFP (UniProt Q9Y6Y9); test: MST; GFP-tagged receptors in lysates of transfected HEK293 cells (RIPA buffer), diluted according to fluorescence intensity; CnB titrated in 16 1:1 dilutions; 25 °C
[2] = target: TLR4-GFP (full-length TLR4 from transfected HEK293 lysates) (UniProt O00206); test: as above
[3] = target: CD14-GFP (full-length membrane-anchored CD14 from transfected HEK293 lysates) (UniProt P08571); test: as above
[4] = target: MD2-GFP (UniProt Q9Y6Y9); test: MST; secreted MD2-GFP in the culture supernatant of transfected 293 cells grown in suspension; CnB titrated in 16 1:1 dilutions

recombinant calcineurin B, sequence (P63098 whole entry): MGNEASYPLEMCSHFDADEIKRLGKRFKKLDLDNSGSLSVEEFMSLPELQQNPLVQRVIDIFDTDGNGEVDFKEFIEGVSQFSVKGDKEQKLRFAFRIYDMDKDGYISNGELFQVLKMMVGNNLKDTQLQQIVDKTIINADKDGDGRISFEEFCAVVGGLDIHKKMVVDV
MD2-GFP, sequence (Q9Y6Y9 19-160): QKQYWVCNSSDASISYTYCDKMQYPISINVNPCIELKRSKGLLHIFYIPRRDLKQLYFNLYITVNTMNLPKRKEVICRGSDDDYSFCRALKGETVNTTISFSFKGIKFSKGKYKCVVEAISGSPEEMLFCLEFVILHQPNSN
CD14-GFP (full-length membrane-anchored CD14 from transfected HEK293 lysates), sequence (P08571 20-367): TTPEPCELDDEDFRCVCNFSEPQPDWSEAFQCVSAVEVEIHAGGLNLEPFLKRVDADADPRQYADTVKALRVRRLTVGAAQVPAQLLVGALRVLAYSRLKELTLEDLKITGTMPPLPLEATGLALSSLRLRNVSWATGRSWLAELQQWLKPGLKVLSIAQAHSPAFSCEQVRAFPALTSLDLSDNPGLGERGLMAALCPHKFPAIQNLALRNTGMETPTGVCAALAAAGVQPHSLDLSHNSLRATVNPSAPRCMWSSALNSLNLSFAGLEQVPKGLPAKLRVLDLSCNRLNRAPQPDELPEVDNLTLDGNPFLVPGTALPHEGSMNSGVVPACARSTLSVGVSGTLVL
TLR4-GFP (full-length TLR4 from transfected HEK293 lysates), sequence (O00206 24-839): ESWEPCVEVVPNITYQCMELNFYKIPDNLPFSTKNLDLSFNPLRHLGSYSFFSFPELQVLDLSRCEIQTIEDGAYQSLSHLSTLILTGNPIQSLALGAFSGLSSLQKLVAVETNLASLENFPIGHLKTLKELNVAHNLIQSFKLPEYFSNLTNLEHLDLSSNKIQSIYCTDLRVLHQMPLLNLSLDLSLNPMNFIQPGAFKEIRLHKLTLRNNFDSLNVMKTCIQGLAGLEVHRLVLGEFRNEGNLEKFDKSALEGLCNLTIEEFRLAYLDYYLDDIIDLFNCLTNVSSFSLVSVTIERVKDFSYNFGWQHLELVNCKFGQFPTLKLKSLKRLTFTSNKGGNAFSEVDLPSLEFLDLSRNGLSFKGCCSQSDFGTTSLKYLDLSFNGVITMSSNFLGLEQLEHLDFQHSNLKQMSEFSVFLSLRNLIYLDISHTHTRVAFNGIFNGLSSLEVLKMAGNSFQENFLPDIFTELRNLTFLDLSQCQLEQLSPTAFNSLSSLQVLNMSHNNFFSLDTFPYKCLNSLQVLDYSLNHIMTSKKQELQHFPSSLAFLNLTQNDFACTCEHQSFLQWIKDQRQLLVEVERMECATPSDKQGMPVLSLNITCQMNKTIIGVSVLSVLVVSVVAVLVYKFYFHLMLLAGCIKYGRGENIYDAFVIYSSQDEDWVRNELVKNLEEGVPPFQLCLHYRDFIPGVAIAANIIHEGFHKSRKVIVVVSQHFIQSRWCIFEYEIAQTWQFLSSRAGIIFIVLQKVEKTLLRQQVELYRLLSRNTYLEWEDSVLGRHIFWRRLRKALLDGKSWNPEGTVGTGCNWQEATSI

## recombinant calcineurin B (from UniProt P63098 1-170) (natural protein; other documents disagree on this pair)
[1]
  Kd: 7.43 µM
[2]
  Kd: 6.5 µM
[3]
  Kd: 34.8 µM
[4]
  Kd: 74 µM
